B1: INTS3 (parent)
chain: DLNSKGKKREFRFHPIKETVVEEP
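Note: lentivirally expressed fusions sorted by FACS into six bins by GFP to DsRed ratio, PSI derived from sequencing read proportions per bin multiplied by bin number.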

In this data set the parent is B1. In words: protein stability index of a GFP-peptide fusion (GPS, HEK-293T) (PSI 1-6); higher = more stable. The conditions noted are these: c terminus: a fixed tail appended.
For the variant DLNSEGKKREFRFHPIKETVVEEP [K5E], the protein stability index worked out at 2.88. As for DLNSHGKKREFRFHPIKETVVEEP [K5H], the protein stability index is 2.48. Next, DLNSWGKKREFRFHPIKETVVEEP [K5W]: 2.32; DLNSVGKKREFRFHPIKETVVEEP [K5V]: 2.76. To DLNSCGKKREFRFHPIKETVVEEP [K5C] belongs 2.05; to DLNSFGKKREFRFHPIKETVVEEP [K5F], 1.88.

For DLNSYGKKREFRFHPIKETVVEEP [K5Y], the protein stability index turned out to be 2.26. Consider DLNSIGKKREFRFHPIKETVVEEP [K5I], for which the protein stability index stood at 2.32. For the variant DLNSPGKKREFRFHPIKETVVEEP [K5P], the protein stability index stood at 2.69. Next, DLNSTGKKREFRFHPIKETVVEEP [K5T]: 2.39; DLNSQGKKREFRFHPIKETVVEEP [K5Q]: 2.44. DLNSDGKKREFRFHPIKETVVEEP [K5D]: the protein stability index came out at 3.04.

Regarding DLNSAGKKREFRFHPIKETVVEEP [K5A], the protein stability index is 2.43.

Consider DLNSLGKKREFRFHPIKETVVEEP [K5L], for which the protein stability index came out at 2.07. As for DLNSGGKKREFRFHPIKETVVEEP [K5G], the protein stability index stood at 2.54. To DLNSSGKKREFRFHPIKETVVEEP [K5S] belongs 2.35; to DLNSMGKKREFRFHPIKETVVEEP [K5M], 2.05; to DLNSNGKKREFRFHPIKETVVEEP [K5N], 2.56.

Turning to DLNSRGKKREFRFHPIKETVVEEP [K5R], the protein stability index turned out to be 2.25. For DLNSKGVKREFRFHPIKETVVEEP [K7V], the protein stability index was 2.54.

For DLNSKGCKREFRFHPIKETVVEEP [K7C], the protein stability index worked out at 1.86. To DLNSKGMKREFRFHPIKETVVEEP [K7M] belongs 2.25. Next, DLNSKGEKREFRFHPIKETVVEEP [K7E]: 3.37; DLNSKGPKREFRFHPIKETVVEEP [K7P]: 1.94. To DLNSKGGKREFRFHPIKETVVEEP [K7G] belongs 2.28; to DLNSKGIKREFRFHPIKETVVEEP [K7I], 2.15; to DLNSKGTKREFRFHPIKETVVEEP [K7T], 2.79. Regarding DLNSKGRKREFRFHPIKETVVEEP [K7R], the protein stability index turned out to be 2.37. On to DLNSKGFKREFRFHPIKETVVEEP [K7F], for which the protein stability index came out at 1.72. Next, DLNSKGLKREFRFHPIKETVVEEP [K7L]: 1.62; DLNSKGWKREFRFHPIKETVVEEP [K7W]: 2.58. Next, DLNSKGQKREFRFHPIKETVVEEP [K7Q]: 2.54; DLNSKGHKREFRFHPIKETVVEEP [K7H]: 2.35. Regarding DLNSKGSKREFRFHPIKETVVEEP [K7S], the protein stability index is 2.48.

With DLNSKGNKREFRFHPIKETVVEEP [K7N], the protein stability index stood at 2.23. Take DLNSKGYKREFRFHPIKETVVEEP [K7Y]: the protein stability index was found to be 1.94. Next, DLNSKGDKREFRFHPIKETVVEEP [K7D]: 3.35; DLNSKGAKREFRFHPIKETVVEEP [K7A]: 2.57; DLNSKFKKREFRFHPIKETVVEEP [G6F]: 1.74.

Turning to DLNSKCKKREFRFHPIKETVVEEP [G6C], the protein stability index stood at 2.23.

Take DLNSKPKKREFRFHPIKETVVEEP [G6P]: the protein stability index stood at 2.42. Next, DLNSKQKKREFRFHPIKETVVEEP [G6Q]: 2.3; DLNSKAKKREFRFHPIKETVVEEP [G6A]: 2.02.

DLNSKEKKREFRFHPIKETVVEEP [G6E]: the protein stability index was 2.25. On to DLNSKMKKREFRFHPIKETVVEEP [G6M], for which the protein stability index is 2.4. For DLNSKSKKREFRFHPIKETVVEEP [G6S], the protein stability index turned out to be 2.03. For the variant DLNSKVKKREFRFHPIKETVVEEP [G6V], the protein stability index was determined as 2.56. Next, DLNSKIKKREFRFHPIKETVVEEP [G6I]: 1.59; DLNSKNKKREFRFHPIKETVVEEP [G6N]: 2.37. Turning to DLNSKTKKREFRFHPIKETVVEEP [G6T], the protein stability index worked out at 2.38. Regarding DLNSKDKKREFRFHPIKETVVEEP [G6D], the protein stability index is 2.29.

As to DLNSKHKKREFRFHPIKETVVEEP [G6H], the protein stability index was determined as 2.74.

Take DLNSKRKKREFRFHPIKETVVEEP [G6R]: the protein stability index is 1.33. Next, DLNSKYKKREFRFHPIKETVVEEP [G6Y]: 1.95; DLNSKKKKREFRFHPIKETVVEEP [G6K]: 1.74; DLNSKLKKREFRFHPIKETVVEEP [G6L]: 1.52. To DLNSKWKKREFRFHPIKETVVEEP [G6W] belongs 2.12; to DLNSKGKKREFRFMPIKETVVEEP [H14M], 3.53; to DLNSKGKKREFRFGPIKETVVEEP [H14G], 4.02.

Regarding DLNSKGKKREFRFFPIKETVVEEP [H14F], the protein stability index turned out to be 3.34. To DLNSKGKKREFRFEPIKETVVEEP [H14E] belongs 4.13; to DLNSKGKKREFRFKPIKETVVEEP [H14K], 3.91; to DLNSKGKKREFRFIPIKETVVEEP [H14I], 3.57. Next, DLNSKGKKREFRFDPIKETVVEEP [H14D]: 4.59; DLNSKGKKREFRFCPIKETVVEEP [H14C]: 3.36.

For the variant DLNSKGKKREFRFLPIKETVVEEP [H14L], the protein stability index was 4.01. Next, DLNSKGKKREFRFAPIKETVVEEP [H14A]: 3.83; DLNSKGKKKEFRFHPIKETVVEEP [R9K]: 3.07; DLNSKGKKWEFRFHPIKETVVEEP [R9W]: 2.21. Next, DLNSKGKKFEFRFHPIKETVVEEP [R9F]: 1.65; DLNSKGKKDEFRFHPIKETVVEEP [R9D]: 4.09. For DLNSKGKKLEFRFHPIKETVVEEP [R9L], the protein stability index was 1.78. Next, DLNSKGKKYEFRFHPIKETVVEEP [R9Y]: 2.31; DLNSKGKKGEFRFHPIKETVVEEP [R9G]: 2.41.

As for DLNSKGKKIEFRFHPIKETVVEEP [R9I], the protein stability index turned out to be 2.35. For DLNSKGKKSEFRFHPIKETVVEEP [R9S], the protein stability index came out at 2.53. To DLNSKGKKHEFRFHPIKETVVEEP [R9H] belongs 1.79. With DLNSKGKKNEFRFHPIKETVVEEP [R9N], the protein stability index was found to be 2.49. Next, DLNSKGKKCEFRFHPIKETVVEEP [R9C]: 2.31; DLNSKGKKEEFRFHPIKETVVEEP [R9E]: 3.73. For the variant DLNSKGKKPEFRFHPIKETVVEEP [R9P], the protein stability index stood at 2.34. To DLNSKGKKQEFRFHPIKETVVEEP [R9Q] belongs 2.83. As to DLNSKGKKTEFRFHPIKETVVEEP [R9T], the protein stability index was 2.56. Next, DLNSKGKKMEFRFHPIKETVVEEP [R9M]: 1.78. For DLNSKGKKAEFRFHPIKETVVEEP [R9A], the protein stability index was determined as 2.87. Next, DLNSKGKKVEFRFHPIKETVVEEP [R9V]: 2.37. Next, DLNSKGKKREARFHPIKETVVEEP [F11A]: 3.95; DLNSKGKKREGRFHPIKETVVEEP [F11G]: 4.32; DLNSKGKKRELRFHPIKETVVEEP [F11L]: 3.84.

As to DLNSKGKKREHRFHPIKETVVEEP [F11H], the protein stability index was 4.31. Next, DLNSKGKKREIRFHPIKETVVEEP [F11I]: 3.55; DLNSKGKKREMRFHPIKETVVEEP [F11M]: 4.45.

DLNSKGKKREVRFHPIKETVVEEP [F11V]: the protein stability index stood at 4.02. Turning to DLNSKGKKRESRFHPIKETVVEEP [F11S], the protein stability index was 4.39.

Values taken from the supplement of paper PMC10567573.
